According to patent publication US20150344570A1 (published 2015):

T1: FcγRIIb (human, UniProt P31994 43-217)
T1 construct: extracellular domain; also called FcgRIIb; 2b
T1 sequence (looked up): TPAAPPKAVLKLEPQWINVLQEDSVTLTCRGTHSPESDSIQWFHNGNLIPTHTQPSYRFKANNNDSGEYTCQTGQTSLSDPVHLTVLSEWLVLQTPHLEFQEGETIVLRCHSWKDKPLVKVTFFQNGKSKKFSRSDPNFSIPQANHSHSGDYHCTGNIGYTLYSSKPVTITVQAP

B1: GpH7-A5/GpH7-B3 variant V266_01G/GpL16-k0 (antibody, human IgG1, kappa)
heavy 1: not shown
heavy 2: not shown
light: DIVMTQSPLSLPVTPGEPASISCQASESLVHSNRNTYLHWYLQKPGQSPQLLIYKVSNRFSGVPDRFSGSGSGTDFTLKISRVEAEDVGVYYCSQNTHVPPTFGQGTKVEIERTVAAPSVFIFPPSDEQLKSGTASVVCLLNNFYPREAKVQWKVDNALQSGNSQESVTEQDSKDSTYSLSSTLTLSKADYEKHKVYACEVTHQGLSSPVTKSFNRGEC
notes: mutation in the GpH7-B3 chain only; also called He Ab
B2: GpH7-A5/GpH7-B3 variant D265_15Y/GpL16-k0 (antibody, human IgG1, kappa)
heavy 1: not shown
heavy 2: not shown
light: B1 light
notes: as for B1
B3: GpH7-A5/GpH7-B3 variant D265_07I/GpL16-k0 (antibody, human IgG1, kappa)
heavy 1: not shown
heavy 2: not shown
light: B1 light
notes: as for B1
B4: GpH7-A5/GpH7-B3 variant D265_10E/GpL16-k0 (antibody, human IgG1, kappa)
heavy 1: not shown
heavy 2: not shown
light: B1 light
notes: as for B1
B5: GpH7-A5/GpH7-B3 variant D265_14T/GpL16-k0 (antibody, human IgG1, kappa)
heavy 1: not shown
heavy 2: not shown
light: B1 light
notes: as for B1
B6: GpH7-A5/GpH7-B3 variant D265_20W/GpL16-k0 (antibody, human IgG1, kappa)
heavy 1: not shown
heavy 2: not shown
light: B1 light
notes: as for B1
B7: GpH7-A5/GpH7-B3 variant D265_08L/GpL16-k0 (antibody, human IgG1, kappa)
heavy 1: not shown
heavy 2: not shown
light: B1 light
notes: as for B1
B8: GpH7-A5/GpH7-B3 variant D265_12R/GpL16-k0 (antibody, human IgG1, kappa)
heavy 1: not shown
heavy 2: not shown
light: B1 light
notes: as for B1
B9: GpH7-A5/GpH7-B3 variant D265_13S/GpL16-k0 (antibody, human IgG1, kappa)
heavy 1: not shown
heavy 2: not shown
light: B1 light
notes: as for B1
B10: GpH7-A5/GpH7-B3 variant D265_16H/GpL16-k0 (antibody, human IgG1, kappa)
heavy 1: not shown
heavy 2: not shown
light: B1 light
notes: as for B1
B11: GpH7-A5/GpH7-B3 variant S267_02A/GpL16-k0 (antibody, human IgG1, kappa)
heavy 1: not shown
heavy 2: not shown
light: B1 light
notes: as for B1
B12: GpH7-A5/GpH7-B3 variant S267_03V/GpL16-k0 (antibody, human IgG1, kappa)
heavy 1: not shown
heavy 2: not shown
light: B1 light
notes: as for B1
B13: GpH7-A5/GpH7-B3 variant D265_03V/GpL16-k0 (antibody, human IgG1, kappa)
heavy 1: not shown
heavy 2: not shown
light: B1 light
notes: as for B1
B14: GpH7-A5/GpH7-B3 variant D265_18N/GpL16-k0 (antibody, human IgG1, kappa)
heavy 1: not shown
heavy 2: not shown
light: B1 light
notes: as for B1
B15: GpH7-A5/GpH7-B3 variant S267_01G/GpL16-k0 (antibody, human IgG1, kappa)
heavy 1: not shown
heavy 2: not shown
light: B1 light
notes: as for B1
B16: GpH7-A5/GpH7-B3 variant D265_04F/GpL16-k0 (antibody, human IgG1, kappa)
heavy 1: not shown
heavy 2: not shown
light: B1 light
notes: as for B1

target: T2, FcγRIIIa (human, UniProt P08637 17-208); experiment: SPR (Biacore), relative binding
T2 construct: extracellular domain; also called FcgRIIIa; 3a
T2 sequence (P08637 17-208): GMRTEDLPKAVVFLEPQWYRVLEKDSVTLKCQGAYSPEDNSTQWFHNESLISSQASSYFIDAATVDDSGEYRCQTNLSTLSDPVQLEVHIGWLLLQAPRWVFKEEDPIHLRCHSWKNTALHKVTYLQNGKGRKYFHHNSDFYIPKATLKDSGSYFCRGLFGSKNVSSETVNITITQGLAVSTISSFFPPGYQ

He/Con_3a	Binder
24 % of GpH7-A5/GpH7-B3/GpL16-k0	B1
-1.7 % of GpH7-A5/GpH7-B3/GpL16-k0	B2
-0.8 % of GpH7-A5/GpH7-B3/GpL16-k0	B3
20.1 % of GpH7-A5/GpH7-B3/GpL16-k0	B4
4.3 % of GpH7-A5/GpH7-B3/GpL16-k0	B5
-0.5 % of GpH7-A5/GpH7-B3/GpL16-k0	B6
0 % of GpH7-A5/GpH7-B3/GpL16-k0	B7
3.2 % of GpH7-A5/GpH7-B3/GpL16-k0	B8
3.9 % of GpH7-A5/GpH7-B3/GpL16-k0	B9
13.6 % of GpH7-A5/GpH7-B3/GpL16-k0	B10
150 % of GpH7-A5/GpH7-B3/GpL16-k0	B11
30.8 % of GpH7-A5/GpH7-B3/GpL16-k0	B12
0.6 % of GpH7-A5/GpH7-B3/GpL16-k0	B13
4.6 % of GpH7-A5/GpH7-B3/GpL16-k0	B14
53.8 % of GpH7-A5/GpH7-B3/GpL16-k0	B15
0 % of GpH7-A5/GpH7-B3/GpL16-k0	B16

target: T1, FcγRIIb; experiment: SPR (Biacore), relative binding

He/Con_2b	Binder
51.5 % of GpH7-A5/GpH7-B3/GpL16-k0	B1
0.6 % of GpH7-A5/GpH7-B3/GpL16-k0	B2
1.3 % of GpH7-A5/GpH7-B3/GpL16-k0	B3
38.2 % of GpH7-A5/GpH7-B3/GpL16-k0	B4
16 % of GpH7-A5/GpH7-B3/GpL16-k0	B5
1.1 % of GpH7-A5/GpH7-B3/GpL16-k0	B6
4.6 % of GpH7-A5/GpH7-B3/GpL16-k0	B7
15 % of GpH7-A5/GpH7-B3/GpL16-k0	B8
11.3 % of GpH7-A5/GpH7-B3/GpL16-k0	B9
38.3 % of GpH7-A5/GpH7-B3/GpL16-k0	B10
243 % of GpH7-A5/GpH7-B3/GpL16-k0	B11
192 % of GpH7-A5/GpH7-B3/GpL16-k0	B12
3.2 % of GpH7-A5/GpH7-B3/GpL16-k0	B13
6.1 % of GpH7-A5/GpH7-B3/GpL16-k0	B14
105 % of GpH7-A5/GpH7-B3/GpL16-k0	B15
3.2 % of GpH7-A5/GpH7-B3/GpL16-k0	B16

target: T2, FcγRIIIa; experiment: SPR; He/Con_3a divided by He/Con_2b (FcγRIIIa against FcγRIIb)

He_3a/2b (IIIa/IIb)	Binder
0.47 ratio	B1
-2.86 ratio	B2
-0.61 ratio	B3
0.53 ratio	B4
0.27 ratio	B5
-0.48 ratio	B6
0 ratio	B7
0.21 ratio	B8
0.35 ratio	B9
0.35 ratio	B10
0.62 ratio	B11
0.16 ratio	B12
0.19 ratio	B13
0.74 ratio	B14
0.51 ratio	B15
0 ratio	B16
